In publication doi:10.1101/2020.03.16.993188 (bioRxiv, 2020):
Where two headings read alike, the source gives them in different places.

B1: Synechocystis sp. PCC 6803 GCS T-protein (aminomethyltransferase), recombinant (enzyme)
chain: MANLFPALRTPLYNLITEQTTKLTTFGGWEMPVQFAGLKQEHQAVREKVGMFDISHMGKFVLTGQKVLAALQSLVPSDLDRLTPGKAQYTVLLNAQGGIIDDIIVYDQGKNPEGQERVTLIVNAATTVKDKQWLLEHLPEEIDFQDLSREKVLIALQGPEALTILQPLVDQNLGELPAFGHLEAEFLREKAFIARTGYTGEDGFEIMVSPEVGKQLWQTFGSKGVTPCGLGARDTLRLEAGMGLYGQDMNDETTPLEAGLGWLVHLDSKGDFIGRAVLTEQKANGVEKRLVGLEMLAKQIARHDYPILHNGEIMGIVTSGTLSPTLQKAIALGYVPTELAKVGQELEVEVRGKTYGIKVVKKLFYRSEQKPR
B2: Synechocystis sp. PCC 6803 GCS H-protein, recombinant, lipoylated holoprotein (natural protein)
chain: MELEHPDDLYYLDSHEYVRFDGETATIGLSAFAVDELGDIVFVELPEEGDKVEFEQSMGAVESVKAASDLYSPVTGTVIEKNSALEDQPELLNQDPYGEEGWLIKVRLDDVEDAKEGLMAAGDYRATLETGD
modifications: lipoyl cofactor on the lipoyl-binding lysine (full lipoylation confirmed by native PAGE); residue number not given
B3: Synechocystis sp. PCC 6803 GCS P-protein (glycine decarboxylase), recombinant (enzyme)
chain: MPNLEPAVVVPTSEAIAVDLTKLEEKLAPADSFLDRHLGPGETEQRQMLQTLGFDTLGDLIDQAVPPAIRFPRSLQLPASQSEYGAIAQLKSIASKNQVFRSYIGMGYYDTITPPVIQRNILENPGWYTAYTPYQAEIAQGRLEALLNFQTMVMDLTGLEIANASLLDEGTAAAEAMALSYGVSKSKANAFFVAQDCHPQTIEVIKTRANPLGIEVIVGDHHTFSFSTSIFGALLQYPATDGAVYDYRSFIDKAHQHQALVTLAADPLSLTLLTPPGELGADIAVGSTQRFGIPLGYGGPHAAYFATKAEYQRKMPGRIVGVSKDAHGNPALRLALQTREQHIRRDKATSNICTAQVLLAVMASMYGVYHGSTGLKNIALRIHQLTVLLAIGLKRLNYSLNNDYFFDTLRVGVGEQSAPAILKAAEGRGINLRPLVPGEVGISLDETVTVQDLLDLWQVFAGKDNLPFTPEELWSEVKTSFPADLTRQSLYLQDAVFNQYHSETELLRYLHQLESKDLALNTSMIPLGSCTMKLNATAEMMPVTWPEFGKIHPFAPAGQTEGYQILFAQLEAWLGEITGFDAISLQPNAGSQGEYAGLQVIRQYHLSRGEEQRNICLIPESAHGTNPASAVMCGMQVVPVKCDGEGNIDVEDLTSKAEKYGDRLAALMVTYPSTHGVFEATIGTICDIVHRFGGEVYMDGANMNAQVGLCRPADFGADVCHLNLHKTFCIPHGGGGPGMGPIGVKSHLQAFLPRTSLNSTAELQAEDQSIGMISAAPYGSASILVISWMYIAMMGPQGLTKATEVAILSANYMAKRLENYYPILFRGNNELVAHECILDLRPLKKQAAIEVEDVAKRLMDFGFHAPTVSWPVLGTMMVEPTESESLGELDRFCDAMIAIYQEAQAITHGEIDPADNPLKNAPHTAQSLICGEWNHPYSQEEAAYPAPWTKQFKFWPAVGRINNTYGDRHLVCSCEGMEAYKEG
B4: Synechocystis sp. PCC 6803 GCS L-protein (dihydrolipoamide dehydrogenase), recombinant (enzyme)
chain: MSQDFDYDLVIIGAGVGGHGAALHAVKCGLKTAIIEAKDMGGTCVNRGCIPSKALLAASGRVREMSDQDHLQQLGIQINGVTFTREAIAAHANDLVSKIQSDLTNSLTRLKVDTIRGWGKVSGPQEVTVIGDNETRILKAKEIMLCPGSVPFVPPGIEIDHKTVFTSDEAVKLETLPQWIAIIGSGYIGLEFSDVYTALGCEVTMIEALPDLMPGFDPEIAKIAERVLIKSRDIETYTGVFATKIKAGSPVEIELTDAKTKEVIDTLEVDACLVATGRIPATKNLGLETVGVETDRRGFIEVNDQMQVIKDGKPVPHLWAVGDATGKMMLAHAASGQGVVAVENICGRKTEVDYRAIPAAAFTHPEISYVGLTEAQAKELGEKEGFVVSTAKTYFKGNSKALAEKETDGIAKVVYRQDTGELLGAHIIGIHASDLIQEAAQAIADRKSVRELAFHVHAHPTLSEVLDEAYKRAV

Columns and labels:
[1] = molecular target: B4; assay: molecular mass cut-off filtration
[2] = molecular target: B3; assay: molecular mass cut-off filtration
[3] = molecular target: the molecule itself; assay: native gel or EMSA
[4] = molecular target: the molecule itself; assay: SEC
[5] = molecular target: B1; assay: SEC
[6] = molecular target: the molecule itself; assay: SEC; remark: listed apart in the source
[7] = molecular target: B1; assay: SEC; remark: listed apart in the source

Row | Binder | stoichiometry N [1] | binding result [2] | binding result [3] | stoichiometry N [4] | stoichiometry N [5] | stoichiometry N [6] | stoichiometry N [7]
1 | B1 | ~3 T per L2 dimer | binds | binds |  |  |  | 
2 | B2 | ~26 H per L2 dimer | binds |  | 2 | ~2 H per T | ~4 | ~4 H per T
3 | B3 | ~0.25 P2 dimer per L2 dimer |  |  |  |  | 2 | 
4 | B4 |  |  |  |  |  | 2 | 
